Reference: patent US20140087995A1 (published 2014)
Values belong to the binder of their own block, whether it stands above or below them. Numbered stars: 1 amine (or outer) side, 2 acyl side, 3 side chain; on linkers, the order of the positions; unused ones are H or OH. Bridge positions count the residues as written; N and C are the ends. Side chains are listed from the residue outwards. Ends that are not written are not given here. * marks the point of attachment. C20 diacid = O=C(O)CCCCCCCCCCCCCCCCCCC(=O)*; γGlu = O=C(O)[C@H](CCC(=O)[*:2])N[*:1]

Target: T1, human amylin receptor (amylin 3(a) receptor: human calcitonin receptor with RAMP-3) (human, UniProt P30988 25-474; O60896 24-148)
T1 construct: whole, on cells; also called hAmylin-R; hAmylinR
T1 sequence (looked up) 1: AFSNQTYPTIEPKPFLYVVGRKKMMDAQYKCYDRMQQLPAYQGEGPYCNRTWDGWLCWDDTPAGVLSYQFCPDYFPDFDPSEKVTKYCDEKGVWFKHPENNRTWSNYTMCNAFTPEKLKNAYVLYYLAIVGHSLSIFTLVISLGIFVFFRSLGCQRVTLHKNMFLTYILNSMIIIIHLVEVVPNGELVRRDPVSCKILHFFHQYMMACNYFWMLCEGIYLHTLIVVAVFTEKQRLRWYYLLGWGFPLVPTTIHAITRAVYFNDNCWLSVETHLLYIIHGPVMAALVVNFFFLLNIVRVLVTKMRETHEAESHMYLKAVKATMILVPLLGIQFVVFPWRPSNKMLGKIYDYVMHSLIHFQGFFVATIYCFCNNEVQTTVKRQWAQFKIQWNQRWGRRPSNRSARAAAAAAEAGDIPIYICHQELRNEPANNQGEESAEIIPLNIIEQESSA
T1 sequence (looked up) 2: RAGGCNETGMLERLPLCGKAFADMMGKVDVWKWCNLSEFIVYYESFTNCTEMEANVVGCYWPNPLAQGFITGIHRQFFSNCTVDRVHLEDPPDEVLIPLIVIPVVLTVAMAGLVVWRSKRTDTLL
Assay: SPA displacement of 125I-rat amylin, hAmylin 3(a) receptor membranes
In short: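 Membranes from BHK Amylin 3(a)/CRE-luc cells (35 ng/μL final) were mixed with SPA beads and test compounds in 50 mM Hepes pH 7.4 with 1 mM CaCl2, 5 mM MgCl₂, 0.1% OA and 0.02% Tween20. Incubation ran 120 min at 25° C with shaking; IC₅₀ came from one-site competition fitting.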

B1: N^ε1-[(4S)-4-carboxy-4-(19-carboxynonadecanoylamino)butanoyl]-[Arg14,Arg17,Pro21,Pro27,Pro31]-h-amylin (peptide)
peptide: K([γGlu-C20 diacid])CNTATCATQRLARFLRHSSPNFGAIPSSTPVGSNTY-NH2
modifications: disulfide 2-7; N-terminus assumed
SMILES: CC[C@H](C)[C@H](NC(=O)[C@H](C)NC(=O)CNC(=O)[C@H](Cc1ccccc1)NC(=O)[C@H](CC(N)=O)NC(=O)[C@@H]1CCCN1C(=O)[C@H](CO)NC(=O)[C@H](CO)NC(=O)[C@H](Cc1c[nH]cn1)NC(=O)[C@H](CCCNC(=N)N)NC(=O)[C@H](CC(C)C)NC(=O)[C@H](Cc1ccccc1)NC(=O)[C@H](CCCNC(=N)N)NC(=O)[C@H](C)NC(=O)[C@H](CC(C)C)NC(=O)[C@H](CCCNC(=N)N)NC(=O)[C@H](CCC(N)=O)NC(=O)[C@@H](NC(=O)[C@H](C)NC(=O)[C@@H]1CSSC[C@H](NC(=O)[C@@H](N)CCCCNC(=O)CC[C@H](NC(=O)CCCCCCCCCCCCCCCCCCC(=O)O)C(=O)O)C(=O)N[C@@H](CC(N)=O)C(=O)N[C@@H]([C@@H](C)O)C(=O)N[C@@H](C)C(=O)N[C@@H]([C@@H](C)O)C(=O)N1)[C@@H](C)O)C(=O)N1CCC[C@H]1C(=O)N[C@@H](CO)C(=O)N[C@@H](CO)C(=O)N[C@H](C(=O)N1CCC[C@H]1C(=O)N[C@H](C(=O)NCC(=O)N[C@@H](CO)C(=O)N[C@@H](CC(N)=O)C(=O)N[C@H](C(=O)N[C@@H](Cc1ccc(O)cc1)C(N)=O)[C@@H](C)O)C(C)C)[C@@H](C)O
notes: also called 63; compound 63
IC50: 0.825 nM

B2: N^ε1-[(4S)-4-carboxy-4-(19-carboxynonadecanoylamino)butanoyl]-[Arg14,Arg17,Pro21,Pro27]-h-amylin (peptide)
peptide: K([γGlu-C20 diacid])CNTATCATQRLARFLRHSSPNFGAIPSSTNVGSNTY-NH2
modifications: disulfide 2-7; N-terminus assumed
SMILES: CC[C@H](C)[C@H](NC(=O)[C@H](C)NC(=O)CNC(=O)[C@H](Cc1ccccc1)NC(=O)[C@H](CC(N)=O)NC(=O)[C@@H]1CCCN1C(=O)[C@H](CO)NC(=O)[C@H](CO)NC(=O)[C@H](Cc1c[nH]cn1)NC(=O)[C@H](CCCNC(=N)N)NC(=O)[C@H](CC(C)C)NC(=O)[C@H](Cc1ccccc1)NC(=O)[C@H](CCCNC(=N)N)NC(=O)[C@H](C)NC(=O)[C@H](CC(C)C)NC(=O)[C@H](CCCNC(=N)N)NC(=O)[C@H](CCC(N)=O)NC(=O)[C@@H](NC(=O)[C@H](C)NC(=O)[C@@H]1CSSC[C@H](NC(=O)[C@@H](N)CCCCNC(=O)CC[C@H](NC(=O)CCCCCCCCCCCCCCCCCCC(=O)O)C(=O)O)C(=O)N[C@@H](CC(N)=O)C(=O)N[C@@H]([C@@H](C)O)C(=O)N[C@@H](C)C(=O)N[C@@H]([C@@H](C)O)C(=O)N1)[C@@H](C)O)C(=O)N1CCC[C@H]1C(=O)N[C@@H](CO)C(=O)N[C@@H](CO)C(=O)N[C@H](C(=O)N[C@@H](CC(N)=O)C(=O)N[C@H](C(=O)NCC(=O)N[C@@H](CO)C(=O)N[C@@H](CC(N)=O)C(=O)N[C@H](C(=O)N[C@@H](Cc1ccc(O)cc1)C(N)=O)[C@@H](C)O)C(C)C)[C@@H](C)O
notes: also called 83; compound 83
IC50: 0.939 nM

B6: N^ε1-[(4S)-4-carboxy-4-(19-carboxynonadecanoylamino)butanoyl]-[Arg17,Pro21,Pro27,Glu35]-h-amylin (peptide)
peptide: K([γGlu-C20 diacid])CNTATCATQRLANFLRHSSPNFGAIPSSTNVGSETY-NH2
modifications: disulfide 2-7; N-terminus assumed
SMILES: CC[C@H](C)[C@H](NC(=O)[C@H](C)NC(=O)CNC(=O)[C@H](Cc1ccccc1)NC(=O)[C@H](CC(N)=O)NC(=O)[C@@H]1CCCN1C(=O)[C@H](CO)NC(=O)[C@H](CO)NC(=O)[C@H](Cc1c[nH]cn1)NC(=O)[C@H](CCCNC(=N)N)NC(=O)[C@H](CC(C)C)NC(=O)[C@H](Cc1ccccc1)NC(=O)[C@H](CC(N)=O)NC(=O)[C@H](C)NC(=O)[C@H](CC(C)C)NC(=O)[C@H](CCCNC(=N)N)NC(=O)[C@H](CCC(N)=O)NC(=O)[C@@H](NC(=O)[C@H](C)NC(=O)[C@@H]1CSSC[C@H](NC(=O)[C@@H](N)CCCCNC(=O)CC[C@H](NC(=O)CCCCCCCCCCCCCCCCCCC(=O)O)C(=O)O)C(=O)N[C@@H](CC(N)=O)C(=O)N[C@@H]([C@@H](C)O)C(=O)N[C@@H](C)C(=O)N[C@@H]([C@@H](C)O)C(=O)N1)[C@@H](C)O)C(=O)N1CCC[C@H]1C(=O)N[C@@H](CO)C(=O)N[C@@H](CO)C(=O)N[C@H](C(=O)N[C@@H](CC(N)=O)C(=O)N[C@H](C(=O)NCC(=O)N[C@@H](CO)C(=O)N[C@@H](CCC(=O)O)C(=O)N[C@H](C(=O)N[C@@H](Cc1ccc(O)cc1)C(N)=O)[C@@H](C)O)C(C)C)[C@@H](C)O
notes: also called 27; compound 27
IC50: 0.837 nM

The remaining binders from weak to strong by IC50, led by results:

IC50: 0.79 nM
B4: N^ε1-[(4S)-4-carboxy-4-(19-carboxynonadecanoylamino)butanoyl]-[Arg17,Pro21,Pro27,Arg34]-h-amylin (peptide)
peptide: K([γGlu-C20 diacid])CNTATCATQRLANFLRHSSPNFGAIPSSTNVGRNTY-NH2
modifications: disulfide 2-7; N-terminus assumed
SMILES: CC[C@H](C)[C@H](NC(=O)[C@H](C)NC(=O)CNC(=O)[C@H](Cc1ccccc1)NC(=O)[C@H](CC(N)=O)NC(=O)[C@@H]1CCCN1C(=O)[C@H](CO)NC(=O)[C@H](CO)NC(=O)[C@H](Cc1c[nH]cn1)NC(=O)[C@H](CCCNC(=N)N)NC(=O)[C@H](CC(C)C)NC(=O)[C@H](Cc1ccccc1)NC(=O)[C@H](CC(N)=O)NC(=O)[C@H](C)NC(=O)[C@H](CC(C)C)NC(=O)[C@H](CCCNC(=N)N)NC(=O)[C@H](CCC(N)=O)NC(=O)[C@@H](NC(=O)[C@H](C)NC(=O)[C@@H]1CSSC[C@H](NC(=O)[C@@H](N)CCCCNC(=O)CC[C@H](NC(=O)CCCCCCCCCCCCCCCCCCC(=O)O)C(=O)O)C(=O)N[C@@H](CC(N)=O)C(=O)N[C@@H]([C@@H](C)O)C(=O)N[C@@H](C)C(=O)N[C@@H]([C@@H](C)O)C(=O)N1)[C@@H](C)O)C(=O)N1CCC[C@H]1C(=O)N[C@@H](CO)C(=O)N[C@@H](CO)C(=O)N[C@H](C(=O)N[C@@H](CC(N)=O)C(=O)N[C@H](C(=O)NCC(=O)N[C@@H](CCCNC(=N)N)C(=O)N[C@@H](CC(N)=O)C(=O)N[C@H](C(=O)N[C@@H](Cc1ccc(O)cc1)C(N)=O)[C@@H](C)O)C(C)C)[C@@H](C)O
notes: also called 79; compound 79

IC50: 0.649 nM
B5: N^ε1-[(4S)-4-carboxy-4-(19-carboxynonadecanoylamino)butanoyl]-[Arg14,Arg17,Pro21,Pro27,Pro34]-h-amylin (peptide)
peptide: K([γGlu-C20 diacid])CNTATCATQRLARFLRHSSPNFGAIPSSTNVGPNTY-NH2
modifications: disulfide 2-7; N-terminus assumed
SMILES: CC[C@H](C)[C@H](NC(=O)[C@H](C)NC(=O)CNC(=O)[C@H](Cc1ccccc1)NC(=O)[C@H](CC(N)=O)NC(=O)[C@@H]1CCCN1C(=O)[C@H](CO)NC(=O)[C@H](CO)NC(=O)[C@H](Cc1c[nH]cn1)NC(=O)[C@H](CCCNC(=N)N)NC(=O)[C@H](CC(C)C)NC(=O)[C@H](Cc1ccccc1)NC(=O)[C@H](CCCNC(=N)N)NC(=O)[C@H](C)NC(=O)[C@H](CC(C)C)NC(=O)[C@H](CCCNC(=N)N)NC(=O)[C@H](CCC(N)=O)NC(=O)[C@@H](NC(=O)[C@H](C)NC(=O)[C@@H]1CSSC[C@H](NC(=O)[C@@H](N)CCCCNC(=O)CC[C@H](NC(=O)CCCCCCCCCCCCCCCCCCC(=O)O)C(=O)O)C(=O)N[C@@H](CC(N)=O)C(=O)N[C@@H]([C@@H](C)O)C(=O)N[C@@H](C)C(=O)N[C@@H]([C@@H](C)O)C(=O)N1)[C@@H](C)O)C(=O)N1CCC[C@H]1C(=O)N[C@@H](CO)C(=O)N[C@@H](CO)C(=O)N[C@H](C(=O)N[C@@H](CC(N)=O)C(=O)N[C@H](C(=O)NCC(=O)N1CCC[C@H]1C(=O)N[C@@H](CC(N)=O)C(=O)N[C@H](C(=O)N[C@@H](Cc1ccc(O)cc1)C(N)=O)[C@@H](C)O)C(C)C)[C@@H](C)O
notes: also called 65; compound 65

IC50: 0.428 nM
B3: N^ε1-[(4S)-4-carboxy-4-(19-carboxynonadecanoylamino)butanoyl]-[Arg17,Pro21,Pro27,His34]-h-amylin (peptide)
peptide: K([γGlu-C20 diacid])CNTATCATQRLANFLRHSSPNFGAIPSSTNVGHNTY-NH2
modifications: disulfide 2-7; N-terminus assumed
SMILES: CC[C@H](C)[C@H](NC(=O)[C@H](C)NC(=O)CNC(=O)[C@H](Cc1ccccc1)NC(=O)[C@H](CC(N)=O)NC(=O)[C@@H]1CCCN1C(=O)[C@H](CO)NC(=O)[C@H](CO)NC(=O)[C@H](Cc1c[nH]cn1)NC(=O)[C@H](CCCNC(=N)N)NC(=O)[C@H](CC(C)C)NC(=O)[C@H](Cc1ccccc1)NC(=O)[C@H](CC(N)=O)NC(=O)[C@H](C)NC(=O)[C@H](CC(C)C)NC(=O)[C@H](CCCNC(=N)N)NC(=O)[C@H](CCC(N)=O)NC(=O)[C@@H](NC(=O)[C@H](C)NC(=O)[C@@H]1CSSC[C@H](NC(=O)[C@@H](N)CCCCNC(=O)CC[C@H](NC(=O)CCCCCCCCCCCCCCCCCCC(=O)O)C(=O)O)C(=O)N[C@@H](CC(N)=O)C(=O)N[C@@H]([C@@H](C)O)C(=O)N[C@@H](C)C(=O)N[C@@H]([C@@H](C)O)C(=O)N1)[C@@H](C)O)C(=O)N1CCC[C@H]1C(=O)N[C@@H](CO)C(=O)N[C@@H](CO)C(=O)N[C@H](C(=O)N[C@@H](CC(N)=O)C(=O)N[C@H](C(=O)NCC(=O)N[C@@H](Cc1c[nH]cn1)C(=O)N[C@@H](CC(N)=O)C(=O)N[C@H](C(=O)N[C@@H](Cc1ccc(O)cc1)C(N)=O)[C@@H](C)O)C(C)C)[C@@H](C)O
notes: also called 77; compound 77
